This is an account of results in PMC9601230 (mBio, 2022).

Data set [1] concerns the molecule itself. Briefly: SEC; analytical Superdex 75 10/300GL, 0.3 mL/min, 20 mM Tris pH 8.0, 200 mM NaCl, 0.5 mM TCEP; 100 uL of protein at 2 mg/mL loaded; calibrated with protein standards.
Data set [2] concerns the target T1, DrRuvC (Deinococcus radiodurans, UniProt Q9RX75 1-179).
T1 sequence: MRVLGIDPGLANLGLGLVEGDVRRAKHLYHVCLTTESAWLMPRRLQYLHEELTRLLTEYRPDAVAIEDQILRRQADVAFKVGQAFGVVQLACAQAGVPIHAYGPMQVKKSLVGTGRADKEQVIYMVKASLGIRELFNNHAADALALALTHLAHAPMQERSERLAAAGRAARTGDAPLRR
Put plainly: EMSA; EMSA: 100 nM 6-FAM substrate, 50 mM Tris-HCl pH 8.0, 125 mM NaCl, 10 ug/mL BSA, 1 mM TCEP, 5% glycerol, 30 C 10 min; 5% native PAGE in 0.5x Tris-borate. The settings on record: protein: recombinant, tags: N-terminal His-MBP-TEV, removed by TEV, chain copies: 2, label: 5'-6-FAM on J31-1.

Data set [3] addresses T1, DrRuvC. Put plainly: EMSA; no obvious specific complex band; EMSA: 100 nM 6-FAM substrate, 50 mM Tris-HCl pH 8.0, 125 mM NaCl, 10 ug/mL BSA, 1 mM TCEP, 5% glycerol, 30 C 10 min; 5% native PAGE in 0.5x Tris-borate. The note with it: protein: recombinant; tags: N-terminal His-MBP-TEV, removed by TEV; chain copies: 2; label: 5'-6-FAM on J31-1; blunt, nick between J31-5 and J31-7.

B1: RuvC from Deinococcus radiodurans (enzyme, UniProt Q9RX75 1-179, looked up)
chain: T1 sequence
notes: Holliday junction resolvase RuvC, Deinococcus radiodurans, full-length gene, residues 1 to 179, amplified from genomic DNA; Expressed from pET28-HMT (His-MBP-TEV); tag removed with TEV protease, so residues of the TEV site may be left at the N-terminus; also called DrRuvC; dr0440; source: E. coli Rossetta (DE3), purified (HisTrap, TEV cleavage, HisTrap, Heparin, Superdex 75); not shown: His6, …
On to B1, for which the “stoichiometry N” value in data set [1] was found to be 2.

B2: mobile HJ (HJ31) (structured_DNA)
DNA 1: GCTAGCCACAGCCATTCGTACGATTGCGGGA
DNA 2: TCCCGCAATCGTACGAAACCGAGCACGATCT
DNA 3: AGATCGTGCTCGGTTTCGTACCAGATGCCAT
DNA 4: ATGGCATCTGGTACGAATGGCTGTGGCTAGC
Turning to B2, the Kd in the data set with DrRuvC [2] (four-way junction with mobile homologous core, 4 strands) was approximately 150 nM.

B3: Y-junction (structured_DNA)
DNA 1: B2 DNA 1
DNA 2: TCCCGCAATCGTCCGTTTCCGAGCACGATCT
DNA 3: AGATCGTGCTCGGAAAAATGGCTGTGGCTAGC
With B3, in the data set with DrRuvC [2] (three-way junction, 3 strands), the Kd was approximately 425 nM.

B4: immobile HJ (structured_DNA)
DNA 1: B2 DNA 1
DNA 2: B3 DNA 2
DNA 3: AGATCGTGCTCGGAAAGCCTGCAGATGCCAT
DNA 4: ATGGCATCTGCAGGCAATGGCTGTGGCTAGC
Consider B4, for which the Kd with DrRuvC [2] (four-way junction, 4 strands) was approximately 150 nM.

B5: nicked HJ (structured_DNA)
DNA 1: B2 DNA 1
DNA 2: B3 DNA 2
DNA 3: AGATCGTGCTCGGAAA
DNA 4: GCCTGCAGATGCCAT
DNA 5: B4 DNA 4
Consider B5, for which, in the data set with DrRuvC [2] (3'-OH and 5'-OH at nick, four-way junction, nick in strand opposite J31-1, 5 strands), the Kd was approximately 150 nM.

B6: replication fork (structured_DNA)
DNA 1: B2 DNA 1
DNA 2: B3 DNA 2
DNA 3: AGATCGTGCTCGGAAA
DNA 4: AATGGCTGTGGCTAGC
B6: the Kd with DrRuvC [2] (three-way junction with nick at junction, 4 strands) was approximately 410 nM.

B7: nicked duplex (dsDNA)
DNA 1: B2 DNA 1
DNA 2: TCCCGCAATCGTACG
DNA 3: AATGGCTGTGGCTAGC
As for B7, in the data set with DrRuvC [3], the Kd is approximately 408 nM.
